Numbering of substitutions follows the chain as printed. Numbers in names are those of the source.
B1: His6-OSK1^S53D (natural protein, rice, UniProt Q6PL11 1-173, looked up)
chain: MAAEGEKKMITLKSSDGEEFEVEEAVAMESQTIRHMIEDDCADNGIPLPNVNDKILSKVIEYCNKHVHAAAAAASKAADDAASAAAAVPPPSGEDLKNWDADFVKVDQATLFDLILAANYLNIKGLLDLTCQTVADMIKGKTPEEIRKTFNIKNDFTPEEEEEIRRENQWAFE
B2: GST-OSK1 (natural protein, rice, UniProt Q6PL11 1-173, looked up)
chain: B1 chain with D53S
notes: not shown: GST, N-terminal, kept
B3: His6-OSK1 (natural protein, rice, UniProt Q6PL11 1-173, looked up)
chain: B1 chain with D53S
B4: GST-OSK1^S53D (natural protein, rice, UniProt Q6PL11 1-173, looked up)
chain: B1 chain
notes: as for B2

Tests used:
Details in all cases: both partners purified
His6-TF-SUMO-OsCOI1b = target: T1, His6-TF-SUMO-OsCOI1b (rice, UniProt Q60EH4 1-597); assay: MST
T1 construct: also called His6-OsCOI1b
T1 sequence (looked up): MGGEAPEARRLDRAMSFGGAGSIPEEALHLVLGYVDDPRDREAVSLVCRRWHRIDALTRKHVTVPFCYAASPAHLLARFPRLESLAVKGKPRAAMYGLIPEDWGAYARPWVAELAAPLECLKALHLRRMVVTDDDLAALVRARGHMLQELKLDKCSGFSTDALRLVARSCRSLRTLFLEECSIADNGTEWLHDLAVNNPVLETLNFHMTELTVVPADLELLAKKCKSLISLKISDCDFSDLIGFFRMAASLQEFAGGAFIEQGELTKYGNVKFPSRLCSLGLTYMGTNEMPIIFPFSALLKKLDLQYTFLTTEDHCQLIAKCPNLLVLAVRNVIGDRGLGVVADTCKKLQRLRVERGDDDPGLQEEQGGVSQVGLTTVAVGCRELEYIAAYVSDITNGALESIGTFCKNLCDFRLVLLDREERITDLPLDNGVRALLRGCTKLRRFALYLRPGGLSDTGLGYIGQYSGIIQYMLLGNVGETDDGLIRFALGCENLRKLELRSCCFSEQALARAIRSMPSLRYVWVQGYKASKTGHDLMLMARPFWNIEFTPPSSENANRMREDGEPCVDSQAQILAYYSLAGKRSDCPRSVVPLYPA

[1] = target: T2, His6-TF-SUMO-tagged OsCOI1b^R13A (rice, UniProt Q60EH4 1-597, R13A); assay: pull-down
T2 sequence (looked up): T1 sequence (looked up) with R13A

[2] = target: T3, His6-TF-SUMO-tagged OsCOI1b^R10A (rice, UniProt Q60EH4 1-597, R10A); assay: pull-down
T3 sequence (looked up): T1 sequence (looked up) with R10A

[3] = target: T4, His6-TF-SUMO-tagged OsCOI1b^R9A (rice, UniProt Q60EH4 1-597, R9A); assay: pull-down
T4 sequence (looked up): T1 sequence (looked up) with R9A

Binder | Kd (His6-TF-SUMO-OsCOI1b) [nM] | binding result [1] | binding result [2] | binding result [3]
B1 | 12.7 |  |  | 
B2 |  | binds | binds | binds
B3 | 53.8 |  |  | 
B4 |  | binds | binds | binds

From publication PMC8445998 (Nature Communications, 2021)
